Results from the RNAGym collection of RNA variant scans (doi:10.1073/pnas.2313332121).
Variants at the floor of the assay were thinned out.

B1: TPR 5TU (parent)
chain: GGAUCUUCUCGAUCUAACAAAAAAGACAAAUCUGCCACAAAGCUUGAGAGCAUCUUCGGAUGCAGAGGCGGCAGCCUUCGGUGGCGCGAUAGCGCCAACGUUCUCAACUAUGACACGCAAAACGCGUGCUCCGUUGAAUGGAGUUUAUCAUG

Variants of: B1
Assay: polymerase ribozyme fitness, log enrichment relative to wild type (log ratio); higher = more active; in vitro selection for triplet polymerase activity
How it was run: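 To select mutant libraries of each subunit of a heterodimeric triplet polymerase ribozyme, built by PCR and transcribed, each was annealed with a biotinylated primer, partner subunit and triplets, then incubated frozen at −7 °C. Extended constructs were gel-excised, captured on streptavidin beads and amplified by RT-PCR, in one round carried out in triplicate. Illumina sequencing of input and output libraries kept genotypes with ≥10 input reads and ≥1 read per output. Fitness is the base-2 logarithm of genotype enrichment relative to wild-type enrichment, from inverse-variance-weighted replicate averages.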

Variant	polymerase ribozyme fitness (log ratio)
G71C U77A U90C C103A U104G C131G	≤ -4.2
C72U A89U A122U U146A	-0.532
G67U C85A C93U	≤ -4.2
C69U G136U U146C	-2.94
C72A C93G C95G	≤ -4.2
G68U C85G U139A U145G U146G	≤ -4.2
C69G C93U	-3.1
C69U C93U	-2.33
A66G G92C C105U	-4.03
G71A C96G	-3.31
C69A C85U C123A	-2.37
G68U C129U	≤ -4.2
G68A G84U C131G G143U	≤ -4.2
C69G G83C	-4.05
A66U C93U	≤ -4.2
C72A C125U	≤ -4.2
A73C A142C	≤ -4.2
C69A G70C A106G C131U A137C	≤ -4.2
G68A C87G U104G	≤ -4.2
C69A U82G	-1.91
C69U C85U	-1.39
G71A U144A A147C	≤ -4.2
G67A C76A	-4.16
C72U U104G A106G U144A	-4.01

Variant	polymerase ribozyme fitness (log ratio)
G67U C75A G92A G124U	≤ -4.2
C69U C85U U127G	-3.4
G68A C72A G80C G94A	≤ -4.2
G68A G71C C95A C116U	≤ -4.2
C69G C96U C103A	-3.44
G71A A107U G133C	≤ -4.2
G70C G83A C87U G117C	-3.9
C69A A121G	-1.74
G70C G80A A91U U104C A120U	≤ -4.2
G67U G81A C93G C105U	≤ -4.2
G70A A73G C79U G88C G133C A137C	≤ -4.2
G68A G94C	-4.03
C72A A73U C85G A138C U148C	≤ -4.2
G67A C87U	-4.13
C69G G94A	-1.15
C69A C85A G124U	-2.55
G68A C87A A107G G117U C132G	≤ -4.2
A73C	-2.13
C72G C99U U101G A142U	≤ -4.2
C69U G86U C114U G141U	≤ -4.2
G68C G83C	≤ -4.2
G68U A150G	≤ -4.2
C72U A98U	0.351
C72U U77C C96A A110G	≤ -4.2

Variant	polymerase ribozyme fitness (log ratio)
G70C C87A G140A	≤ -4.2
C69U C85G C149U	-2.74
C69A C93G C103A U130A	≤ -4.2
A66U G88A U109A A122C	≤ -4.2
G70A U78C G88U U104G A113G G128U U135A	≤ -4.2
G68U A91G	≤ -4.2
G67A C87A A98U	≤ -4.2
G68A C75A U77A C95A A97G	≤ -4.2
C72U C76A	-1.91
G67C U101A G141U A150U G152U	≤ -4.2
G70A C99U U134G G140C G143C	≤ -4.2
G67A A73C C87G	≤ -4.2
G71U A89U C95A	-3.94
C72G C105U	-3.5
G71U	-1.93
G71C	-2.66
G71A	-2.47
C69A A120C	-1.7
A66U G94A G100U U148G	≤ -4.2
G68A C87G G128U	≤ -4.2
G68A C96U	-3.68
G68U U134G	≤ -4.2
G68A A106C	-4.13
C69G C75G	-2.12

Variant	polymerase ribozyme fitness (log ratio)
G68A A91U A107C A110G G141A	≤ -4.2
G68C G86U A89U C96A A110U C114U	≤ -4.2
C72G A147U	-3.16
G68C G81U C96U U109C	≤ -4.2
C72U A73C A98G C118A G124C U135C U139A	≤ -4.2
G68A U130C	-3.95
G71C U111G	≤ -4.2
C72G G83A G100A	≤ -4.2
G71C U102G G133C G141C	≤ -4.2
C69U G84A A115G G117U G136C	≤ -4.2
C72U C93U A97U A115U	-3.88
C72G U101G	≤ -4.2
G70A C75U C87G C99G C103A G140U U144G U146G	≤ -4.2
G68A G83A C116U	≤ -4.2
G68A A119U A122U U148A	≤ -4.2
C69G G84A U101C	-2.05
C69U G81U	-2.07
C69A C76G C79A U102A G141C	≤ -4.2
G68C C96G U139A	≤ -4.2
C69G C76A G152U	-4.17
C69U G83U	-0.933
C69U G83A	-3.04
G71A G88A	≤ -4.2
G67A C99U A107U G143C	≤ -4.2

Variant	polymerase ribozyme fitness (log ratio)
A66G G84A G141C	≤ -4.2
C72U A91U A106C A115G A119U G143A U145G U151G	≤ -4.2
C72U A73U G83A	-2.51
C72U C93U U111C A119U A142G	≤ -4.2
G71C C87A G128U C131U G152U	≤ -4.2
C69G G84U A89U A122C U146C	-2.82
G68C C99G	≤ -4.2
G67U G117A U151A	≤ -4.2
G67U G70C G86A C132G	≤ -4.2
G71U C85G U134G U139G	≤ -4.2
G70A C93A C103G	≤ -4.2
G70A C85G	≤ -4.2
G70A C85U	-3.46
C69U C96A	-1.12
G70C G80A	-3.94
G68A C75A G128A A150C	≤ -4.2
G71U G84A A106U C118A G152A	≤ -4.2
G71U G80C C95U U127A	-3.97
G67C A91C	≤ -4.2
C69U C87A	≤ -4.2
C69G A89U	-1.45
G70U C131U A137G	-4.05
G68C G83U G92A U102A A137G A142G	≤ -4.2
G70C G94C	-3.44

Variant	polymerase ribozyme fitness (log ratio)
G68A G83U C118G G136U	≤ -4.2
C72G C93G C95U C118G A138C U145A	≤ -4.2
C69U C116U U135A G136U	-4.18
G68C A89G G94A A113U	≤ -4.2
G67C G92U C99U A107U U148A	≤ -4.2
C72U A98G U134C	-0.362
G67A A89G G92C C93A C116U A122C U127C	≤ -4.2
C69G C96U A142C	-2.43
G71C U109A U111G	≤ -4.2
G70U G92U A98G A147C	≤ -4.2
C69U A98U	-1.15
G68C A89C C96A A113G G124C U134C	≤ -4.2
C72U C85U C95U	-0.261
C69A C93U U102G A113U G117U U146A C149U	≤ -4.2
G68C C93U G140A A147G	≤ -4.2
G68A C93A C108A G143U	≤ -4.2
A66U G86U C103A A142G	≤ -4.2
G71C A73C C108U U146C C149G	≤ -4.2
C72G A91G C99G U144A	≤ -4.2
C72G C99G U139A	≤ -4.2
C69A G70C	-3.18
C69G A121U	-2.04
G71U A73U A97G U145G	≤ -4.2
G67U C87G U130A	≤ -4.2

Variant	polymerase ribozyme fitness (log ratio)
C69U C76G U130A	≤ -4.2
G71C C116U	-2.51
C72G C99G	≤ -4.2
A73C C85A A110C A119U G136U	≤ -4.2
G67A G74C G94A A119G	≤ -4.2
G71C G80C C95G U104G C116U	≤ -4.2
G68C C93U A113U	≤ -4.2
G68U G136A	-3.9
C69U C87U G92C A150G	-3.27
C69A G92U	-1.15
G67U C79G	≤ -4.2
G67A G86A	-3.58
C72U A89G C95A	-1.39
C69G C87A	≤ -4.2
A66G U78G U90C U135G	≤ -4.2
C69U A73U	-2.64
G71C C129A	≤ -4.2
G68C G136U A142G	≤ -4.2
G68A G81A C95A A150C G152A	≤ -4.2
G70C A97G	-3.97
C72U G124A U146G	-1.3
C69A A115U	-2.49
G67U C118U	-2.87
